For this series, the system named is USF1 (upstream stimulatory factor) (Ciona intestinalis). Description: SPR. The following applies: binding good, dimer.

pKd: −log10 of the molar value.

Sequence of USF1 (upstream stimulatory factor) (Ciona intestinalis) (chain, as listed by the source): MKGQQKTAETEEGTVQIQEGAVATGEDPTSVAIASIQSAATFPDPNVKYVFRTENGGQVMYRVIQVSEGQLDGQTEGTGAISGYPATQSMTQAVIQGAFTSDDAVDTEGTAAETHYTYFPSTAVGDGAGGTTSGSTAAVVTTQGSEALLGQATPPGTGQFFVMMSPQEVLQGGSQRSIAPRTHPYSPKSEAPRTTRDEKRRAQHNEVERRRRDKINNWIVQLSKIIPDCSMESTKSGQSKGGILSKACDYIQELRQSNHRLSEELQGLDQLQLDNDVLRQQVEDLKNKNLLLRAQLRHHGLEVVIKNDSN

As for “GGTATTGAGGGTCGCATCGGCAAAAAGGATTGCCCAGGTCTGCTGTCTAGCCGGATTCGATGGCTCTAACTCTCCTCT [6H1]”, the pKd (commonly −log10 of the Kd, conventionally taken in molar units) was 7.44. The result for “GGTATTGAGGGTCGCATCGGCTTCAGGTTGGTCTGGTTGGGTTTGGCTCCTGTGTACGGATGGCTCTAACTCTCCTCT [6H5]” reads 6.75.
